The record followed here is publication PMC5695864.

The target of experiment [1] is core-fucosylated RNase B (21) (bovine) (UniProt P61823). The experiment is described as follows: ELISA. (In an ELISA, binding on a coated surface is turned into a signal by an enzyme label.)
Experiment [2] has as its target S2G2F-rituximab (30), core-fucosylated sialyl complex type glycoform of rituximab (human). Put plainly: ELISA.

Sequence of UniProt P61823 (P61823 27-150): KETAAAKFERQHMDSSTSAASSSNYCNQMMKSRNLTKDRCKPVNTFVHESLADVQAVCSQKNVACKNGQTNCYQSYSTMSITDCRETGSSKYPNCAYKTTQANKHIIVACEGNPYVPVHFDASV

As for “Aleuria aurantia lectin (AAL) (from UniProt P18891 1-313) (natural protein)”, the concentration for a half-maximal effect (EC50) in experiment [1] is 275 µM.

B1: Aleuria aurantia lectin (AAL) (natural protein)
chain: MPTEFLYTSKIAAISWAATGGRQQRVYFQDLNGKIREAQRGGDNPWTGGSSQNVIGEAKLFSPLAAVTWKSAQGIQIRVYCVNKDNILSEFVYDGSKWITGQLGSVGVKVGSNSKLAALQWGGSESAPPNIRVYYQKSNGSGSSIHEYVWSGKWTAGASFGSTVPGTGIGATAIGPGRLRIYYQATDNKIREHCWDSNSWYVGGFSASASAGVSIAAISWGSTPNIRVYWQKGREELYEAAYGGSWNTPGQIKDASRPTPSLPDTFIAANSSGNIDISVFFQASGVSLQQWQWISGKGWSIGAVVPTGTPAGW
modifications: biotin (AAL-biotin)
Turning to B1, the EC50 in experiment [2] was 15 µM.

For orientation: EC50 means the concentration needed to bring the measured effect to its halfway point. High values mean a less potent agent, low ones a more potent agent.
